# Measurements published in publication PMC2173304.
# Molecular target: peptide corresponding to the cytoplasmic tail of lysosomal acid phosphatase (LAP) (UniProt P11117)
# Test: SPR
# Chain of UniProt P11117 (P11117 402-423): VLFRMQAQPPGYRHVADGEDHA
substance,measurement,value
"AP2 complex from pig brain, dephosphorylated with calf intestinal alkaline phosphatase",fold decrease in affinity against untreated AP2,> 4 fold
